Here are results for 16 molecules from patent US20180334496A1 (KODIAK SCIENCES, published 2018).

Experiment [1] has as its target T1, recombinant human CFD mutant 1 (R157A, R207A), His-tagged (human, UniProt P00746 26-253).
T1 construct: positions are linear positions in the mature protein; also called rhCFD-mut1-His; Mut1
In words: SPR MX96.

Experiment [2] has as its target T2, recombinant cynomolgus CFD, His-tagged (cynomolgus).
T2 construct: also called rcyCFD-His; recombinant Cyno-CFD
In words: SPR MX96.

Experiment [3] concerns the target T3, recombinant human CFD, His-tagged (human, UniProt P00746 26-253).
T3 construct: also called rhCFD-His
In words: SPR MX96.

In experiment [4] the target is T4, human complement factor D purified from serum (human, UniProt P00746 26-253).
T4 construct: serum-purified (CompTech); also called hCFD-Comptech; CFD
In words: SPR MX96.

Experiment [5] concerns the target T4, human complement factor D purified from …. In words: Biacore, protein A capture. On the technique in general: In SPR one partner is held on a chip, and binding of the other changes the refractive index at the surface.
The target in experiment [6] is T5, serum purified human Complement Factor D (human, UniProt P00746 26-253).
T5 construct: Serum purified protein flowed over the captured antibodies; also called CFD; human CFD
Kind of experiment: SPR Biacore, antibody on protein A chip, single cycle kinetics, 37 C.

Experiment [7] concerns the target T5, serum purified human Complement Factor D. In words: SPR Biacore, antibody on protein A chip, single cycle kinetics, 25 C.
Experiment [8] has the same target. Kind of experiment: SPR Biacore, antibody on protein A chip, single cycle kinetics, 37 C. The source holds these as a separate data set.
Experiment [9] has the same target. Kind of experiment: SPR Biacore, antibody on protein A chip, single cycle kinetics, 25 C. This is another data set of the same source.

The Kd is the constant that tells how readily two partners part at equilibrium. As a reminder, the koff is the first-order rate constant of dissociation. By kon is commonly meant the second-order rate constant of association. Low values mean slow association, high ones fast association.

T5 sequence (P00746 26-253): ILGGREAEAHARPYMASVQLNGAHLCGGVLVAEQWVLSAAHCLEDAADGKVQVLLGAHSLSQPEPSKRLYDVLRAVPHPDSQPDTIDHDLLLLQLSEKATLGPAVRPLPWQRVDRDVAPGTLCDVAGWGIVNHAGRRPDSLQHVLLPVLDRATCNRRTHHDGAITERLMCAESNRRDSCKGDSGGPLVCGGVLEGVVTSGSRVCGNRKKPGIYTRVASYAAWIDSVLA
T3 sequence (P00746 26-253 limits assumed): as the sequence (P00746 26-253) above
T4 sequence (P00746 26-253): as above
T1 sequence (P00746 26-253 R182A/R232A limits assumed): as the sequence (P00746 26-253) above, with R157A, R207A counted along it

B1: KCD018 (antibody, V domains shown)
VH: QVQLQQSAAELARPGASVKMSCKASGYTFTSYTVHWVKQRPGQGLEWIGYINPSSGFTDYNQKFKDKTTLTADISSSTAYIQLSSLTSEDSAVYYCARRGVNWSWFAYWGQGTLVTVSA
VL: NIMMTQSPSSLAVSAGEKVTMSCKSSQSVLYSSNQKNYLAWYQQKPGQSPQLLIYWASTRESGVPERFTGSGSGTDFTLTISSVQAEDLAVYYCHQYLSSWTFGGGTKLEIK
For B1, the Kd in experiment [1] is 99 nM; in experiment [2], 52 nM; in [3], 41 nM; in experiment [4], 41 nM.

B2: KCD119 TAF heavy chain / KCD119 TAF light chain (antibody, V domains shown)
VH: EVQLVESGGGLVQPGGSLRLSCAASGYTFTDYYMNWVRQAPGKGLEWIGDINPNTGDTSYNADFKRRFTFSLDTSKSTAYLQMNSLRAEDTAVYYCTREGPSFAYWGQGTLVTVSS
VL: DIQLTQSPSSLSASVGDRVTITCRSSQTIVHSNGDTYLEWYQQKPGKAPNLLIYKVSNRFSGVPSRFSGSGSGTDFTLTISSLQPEDFATYYCFQGSHVPPTFGQGTKVEIK
notes: humanized full IgG captured on protein A; also called TAF KCD119
As to B2, in experiment [5], the Kd turned out to be 0.23 nM, the koff was 0.00103 s⁻¹ and the on-rate (kon) is 4.46e+06 M⁻¹ s⁻¹.

B3: KCD119 TAF / KCD119 TAF (antibody, V domains shown)
VH: EVQLVESGGGLVQPGGSLRLSCAASGYTFTDYYMNWVRQAPGKGLEWIGDINPNTGDTSYNADFKRRFTFSLDTSKSTAYLQMNSLRAEDTAVYYCTREGPSFAYWGQGTLVTVSS
VL: DIQLTQSPSSLSASVGDRVTITCRSSQTIVHSNGDTYLEWYQQKPGKAPNLLIYKVSNRFSGVPSRFSGSGSGTDFTLTISSLQPEDFATYYCFQGSHVPPTFGQGTKVEIK
notes: Humanized KCD119; tested as full antibody captured on protein A; also called D19 TAF
Regarding B3, the Kd in experiment [6] was 0.499 nM; in experiment [7] it was 0.113 nM; in experiment [8], 0.499 nM; in experiment [9] it was 0.113 nM. Also, the koff in experiment [6] worked out at 0.00628 s⁻¹; in [7], 0.00155 s⁻¹; in [8] it was 0.00628 s⁻¹; in experiment [9], 0.00155 s⁻¹. Besides, the kon in experiment [6] came to 1.26e+07 M⁻¹ s⁻¹; in experiment [7], 1.38e+07 M⁻¹ s⁻¹; in experiment [8], 1.26e+07 M⁻¹ s⁻¹; in experiment [9] it was 1.38e+07 M⁻¹ s⁻¹.

B4: 54V59D heavy chain / KCD119 TAF light chain (antibody, V domains shown)
VH: EVQLVESGGGLVQPGGSLRLSCAASGYTFTDYYMNWVRQAPGKGLEWIGDINPVTGDTDYNADFKRRFTFSLDTSKSTAYLQMNSLRAEDTAVYYCTREGPSFAYWGQGTLVTVSS
VL: DIQLTQSPSSLSASVGDRVTITCRSSQTIVHSNGDTYLEWYQQKPGKAPNLLIYKVSNRFSGVPSRFSGSGSGTDFTLTISSLQPEDFATYYCFQGSHVPPTFGQGTKVEIK
notes: IgG
In experiment [5], B4 gave a Kd of 0.0526 nM, an off-rate (koff) of 0.000307 s⁻¹ and a kon of 5.85e+06 M⁻¹ s⁻¹.

B5: 54V heavy chain / KCD119 TAF light chain (antibody, V domains shown)
VH: EVQLVESGGGLVQPGGSLRLSCAASGYTFTDYYMNWVRQAPGKGLEWIGDINPVTGDTSYNADFKRRFTFSLDTSKSTAYLQMNSLRAEDTAVYYCTREGPSFAYWGQGTLVTVSS
VL: DIQLTQSPSSLSASVGDRVTITCRSSQTIVHSNGDTYLEWYQQKPGKAPNLLIYKVSNRFSGVPSRFSGSGSGTDFTLTISSLQPEDFATYYCFQGSHVPPTFGQGTKVEIK
notes: IgG; also called 54V/wt
In experiment [5], B5 came in with a Kd of 0.153 nM, a dissociation rate constant (koff) of 0.000627 s⁻¹ and an association rate constant (kon) of 4.09e+06 M⁻¹ s⁻¹.

B6: 54V59D heavy chain / 101V light chain (antibody, V domains shown)
VH: EVQLVESGGGLVQPGGSLRLSCAASGYTFTDYYMNWVRQAPGKGLEWIGDINPVTGDTDYNADFKRRFTFSLDTSKSTAYLQMNSLRAEDTAVYYCTREGPSFAYWGQGTLVTVSS
VL: DIQLTQSPSSLSASVGDRVTITCRSSQTIVHSNGDTYLEWYQQKPGKAPNLLIYKVSNRFSGVPSRFSGSGSGTDFTLTISSLQPEDFATYYCFQGSHVPVTFGQGTKVEIK
notes: IgG
For B6, in [5], the Kd was 0.0321 nM, the off-rate constant (koff) is 0.000213 s⁻¹ and the on-rate constant (kon) was found to be 6.64e+06 M⁻¹ s⁻¹.

B7: 54V heavy chain / 101V light chain (antibody, V domains shown)
VH: EVQLVESGGGLVQPGGSLRLSCAASGYTFTDYYMNWVRQAPGKGLEWIGDINPVTGDTSYNADFKRRFTFSLDTSKSTAYLQMNSLRAEDTAVYYCTREGPSFAYWGQGTLVTVSS
VL: DIQLTQSPSSLSASVGDRVTITCRSSQTIVHSNGDTYLEWYQQKPGKAPNLLIYKVSNRFSGVPSRFSGSGSGTDFTLTISSLQPEDFATYYCFQGSHVPVTFGQGTKVEIK
notes: IgG
In experiment [5], B7 displayed a dissociation constant (Kd) of 0.0949 nM, an off-rate constant (koff) of 0.000463 s⁻¹ and a kon of 4.88e+06 M⁻¹ s⁻¹.

B8: KCD038 (antibody, V domains shown)
VH: EVQLQQSGPELVKPGTSMKISCKASGYSFADYTMNWVKQSHGKSLEWIGLINPYNGGTSYNQKFMGKATLTVDKSSSTAYMELLSLTSEDSAVYYCARWGTYSHNYDYAMDYWGQGTSVTVSS
VL: DVVMTQTPLSLPVSLGDQASISCRSSQSLVHSNGNTYLYWYFQKPGQSPKFLIYKVSNRFSGISDRFSGSGSGTDFTLKISRVEAEDLGVYFCSQSTHVPPFTFGSGTKLEIK
With B8, the Kd came to 84 nM in experiment [1], 45 nM in experiment [2], 48 nM in experiment [3] and 37 nM in [4].

B9: KCD039 (antibody, V domains shown)
VH: EVQLQQSGPEMVKPGASMKISCKASGYSFADYTLNWVKQSHGKSLEWIGLINPYNGGTSYNQKFMGKATLTVDKSSSTAYMELLSLTSEDSAVYYCTRWGTYSHNYDYAMDYWGQGTSVTVSS
VL: DVVMTQTPLSLSVSLGDQASISCRSSQSLVHSNGNTYLYWYLQKPGQSPKLLIYKVSNRFSGITDRFSGSGSGTDFTLKISRVEAEDLGVYFCSQSTHVPPFTFGSGTKLEIK
As for B9, the equilibrium dissociation constant (Kd) came out at 70 nM in experiment [1], 39 nM in experiment [2], 43 nM in [3] and 53 nM in experiment [4].

B10: KCD050 (antibody, V domains shown)
VH: QVQLKESGPGLVAPSQSLSITCTVSGFSLNSYGVQWVRQPPGQGLEWLVVIWRDGTITYNSALKSRLSINKDNSKSQVFLKMNSLQTDDTAMYYCGRTSHYGNFNYYVMDYWGQGTAVTVSS
VL: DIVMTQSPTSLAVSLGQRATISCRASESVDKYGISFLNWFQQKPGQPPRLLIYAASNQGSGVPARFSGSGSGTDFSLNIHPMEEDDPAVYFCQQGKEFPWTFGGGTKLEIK
Turning to B10, the Kd amounted to 1.9 nM in experiment [1], 8.2 nM in experiment [2], 3.1 nM in experiment [3] and 2 nM in experiment [4].

B11: KCD052 (antibody, V domains shown)
VH: QVQLKESGPGLVAPSQSLSITCTVSGFSLNSYGVQWVRQPPGQGLEWLGVIWRDGSITYNSALKSRLSIRKDNSKSQVFLKMNSLQTDDTAMYYCGRTSHYGNYNYYVMDYWGQGTAVTVSS
VL: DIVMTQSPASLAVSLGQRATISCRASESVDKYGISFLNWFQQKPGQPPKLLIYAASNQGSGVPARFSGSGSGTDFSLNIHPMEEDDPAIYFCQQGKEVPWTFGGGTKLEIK
As for B11, the dissociation constant Kd in experiment [1] was found to be 2.5 nM; in [2], 10 nM; in experiment [3], 3.7 nM; in experiment [4] it was 3.1 nM.

B12: KCD008 (antibody, V domains shown)
VH: EVQLQQSGPELVKAGASVKMSCTASGFNIKDTYMHWVKQRPEQGLAWIGRIDPANGNIKYDPKFQGKATITADTSSNTAYLQLSSLTSDDTAVYYCTSAMDYWGQGTSVTVSS
VL: QIVLTQSPEIMSASPGEKVTMTCSARSSVSYMYWYQQKPGSSPRLLIYDTSNLASGVPVRFSGSGSGTSYSLTISRMETEDAATYYCQQWSTYPFTFGSGTKLEIK
With B12, the Kd in experiment [1] was found to be 5.7 nM; in experiment [2] it was 66 nM; in experiment [3], 3.2 nM; in experiment [4], 4.4 nM.

B13: KCD017 (antibody, V domains shown)
VH: DVQLQESGPDLVKPSQSLSLTCTVTDYSITSGYSWHWIRQFPGNKLEWLGYIHSSGNTNYNPSLKSRFSITRDTSKNQFFLQLNSVTSEDTATYYCALHYYGSSFGWYFDVWGAGTTVTVSS
VL: DIVMTQSHKFMSTSVGDRVYITCKASQDVGTAVAWYQQTSGQSPKLLIYWASTRHTGVPDRFTGSGSGTDFTLTLSNVQSEDLADYFCQQYTSYPLTFGAGTKLELK
Turning to B13, the dissociation constant (Kd) in experiment [1] was 10 nM; in experiment [2] it was 11 nM; in experiment [3], 13 nM; in experiment [4], 7.8 nM.

B14: KCD065 (antibody, V domains shown)
VH: QVQLQQSGAELARPGASVKMSCKASGYTFTTYTIHWVKQRPGQGLEWIGYINPSSDFTNYNQNFADKATLTADRSSSTAYMQLSSLTSEESAVYYCAIRLGYDRQGWYFDVWGAGTTVTVSS
VL: DIVMTQSHKFLSTSLGDRVSITCKASQDVGSAVAWYQQKPGQSPDLLIYWTFTRHTGVPDRFTGSRSGTDFTLTISNVQSGDLADYFCQQYSNYPLTFGGGTKLEIK
Turning to B14, the Kd in [1] stood at 25 nM; in experiment [2], 25 nM; in experiment [3] it was 17 nM; in experiment [4], 3.3 nM.

B15: KCD210 (antibody, V domains shown)
VH: EVQLQQSGPVLVKPGASVTMSCKASGYTFTEYYMNWVKQSHGKSLDWIGVINPYSGGTSYKQKFKDKATLTVDKSSSTAYMELNGLTSEDSAVYFCVRGGLRRNYFDYWGQGTTLTVSS
VL: EIVLTQSPALMTASPGEKVTITCSVSSSISSTNLHWYQQKSGTSPKPWIFGTSNLASGVPVRFSGSGSGTSYSLTISNMEAEDAATYYCQQWNSYPFTFGTGTKLEIK
For B15, the Kd in [1] is 2.9 nM; in experiment [2], 3.6 nM; in experiment [3], 2.9 nM; in [4] it was 3.5 nM.

B16: KCD135 (antibody, V domains shown)
VH: EVQLQQSGPELVKPGASVRMSCKASGYIFTDYSIHWVKQSHGKSLEWIGYINPNNGGTSYNQKFKGKATLTVNKSSTTAYMELRSLTSEDSAVYFCARDTTIVGDYWGQGTTLTVSS
VL: DIVMTQSQKFMSTSVGDRVSVTCKASQHVGTNVVWYQQKPGQSPKALIYSASYRYSGVPDRFSGSGSGTDFTLTISNVQSEDLAEYFCQQFNSYPLTFGGGTKLEIK
Take B16: the Kd in experiment [1] was 15 nM; in experiment [2], 18 nM; in experiment [3], 13 nM; in [4], 21 nM.
